{"source": "patent US20230235012A1", "about": "(ALPINE IMMUNE SCIENCES, published 2023)", "molecules": {"B1": {"name": "variant ICOSL ECD-Fc F120S/Y152H/N201S (Fc fusion)", "chain": "DTQEKEVRAMVGSDVELSCACPEGSRFDLNDVYVYWQTSESKTVVTYHIPQNSSLENVDSRYRNRALMSPAGMLRGDFSLRLFNVTPQDEQKFHCLVLSQSLGFQEVLSVEVTLHVAANSSVPVVSAPHSPSQDELTFTCTSINGYPRPNVHWINKTDNSLLDQALQNDTVFLNMRGLYDVVSVLRIARTPSVNIGCCIESVLLQQNLTVGSQTGNDIGERDKITENPVSTGEKNAATAAAEPKSSDKTHTCPPCPAPELLGGPSVFLFPPKPKDTLMISRTPEVTCVVVDVSHEDPEVKFNWYVDGVEVHNAKTKPCEEQYGSTYRCVSVLTVLHQDWLNGKEYKCKVSNKALPAPIEKTISKAKGQPREPQVYTLPPSREEMTKNQVSLTCLVKGFYPSDIAVEWESNGQPENNYKTTPPVLDSDGSFFLYSKLTVDKSRWQQGNVFSCSVMHEALHNHYTQKSLSLSPGK"}, "B2": {"name": "variant ICOSL ECD-Fc S54F/V193A (Fc fusion)", "chain": "B1 chain with S54F, S120F, H152Y, V193A, S201N"}, "B3": {"name": "ICOSL (N52D) (Fc fusion, not shown: a dimerising Fc or GST; small tags and cut ends)", "chain": "DTQEKEVRAMVGSDVELSCACPEGSRFDLNDVYVYWQTSESKTVVTYHIPQDSSLENVDSRYRNRALMSPAGMLRGDFSLRLFNVTPQDEQKFHCLVLSQSLGFQEVLSVEVTLHVAANFSV", "notes": "also called ICOSL H79; parental ICOSL only protein"}, "B4": {"name": "ICOSL (N52H/N57Y/Q100R) (Fc fusion, not shown: a dimerising Fc or GST; small tags and cut ends)", "chain": "B3 chain with D52H, N57Y, Q100R", "notes": "also called ICOSL H238; parental ICOSL only protein"}, "B5": {"name": "ICOSL (N52L/N57H/Q100R) (Fc fusion, not shown: a dimerising Fc or GST; small tags and cut ends)", "chain": "B3 chain with D52L, N57H, Q100R", "notes": "also called ICOSL H3447; parental ICOSL only protein"}, "B6": {"name": "variant ICOSL IgV-Fc (N52H/N57Y/Q100R) (Fc fusion)", "chain": "DTQEKEVRAMVGSDVELSCACPEGSRFDLNDVYVYWQTSESKTVVTYHIPQHSSLEYVDSRYRNRALMSPAGMLRGDFSLRLFNVTPQDEQKFHCLVLSRSLGFQEVLSVEVTLHVAANFSVEPKSSDKTHTCPPCPAPEAEGAPSVFLFPPKPKDTLMISRTPEVTCVVVDVSHEDPEVKFNWYVDGVEVHNAKTKPREEQYNSTYRVVSVLTVLHQDWLNGKEYKCKVSNKALPAPIEKTISKAKGQPREPQVYTLPPSRDELTKNQVSLTCLVKGFYPSDIAVEWESNGQPENNYKTTPPVLDSDGSFFLYSKLTVDKSRWQQGNVFSCSVMHEALHNHYTQKSLSLSPG"}, "B7": {"name": "ICOSL ECD with N52H/N57Y/Q100R/F172S, (G4S)2-Fc fusion (Fc fusion)", "chain": "DTQEKEVRAMVGSDVELSCACPEGSRFDLNDVYVYWQTSESKTVVTYHIPQHSSLEYVDSRYRNRALMSPAGMLRGDFSLRLFNVTPQDEQKFHCLVLSRSLGFQEVLSVEVTLHVAANFSVPVVSAPHSPSQDELTFTCTSINGYPRPNVYWINKTDNSLLDQALQNDTVSLNMRGLYDVVSVLRIARTPSVNIGCCIENVLLQQNLTVGSQTGNDIGERDKITENPVSTGEKNAATGGGGSGGGGSEPKSSDKTHTCPPCPAPEAEGAPSVFLFPPKPKDTLMISRTPEVTCVVVDVSHEDPEVKFNWYVDGVEVHNAKTKPREEQYNSTYRVVSVLTVLHQDWLNGKEYKCKVSNKALPAPIEKTISKAKGQPREPQVYTLPPSREEMTKNQVSLTCLVKGFYPSDIAVEWESNGQPENNYKTTPPVLDSDGSFFLYSKLTVDKSRWQQGNVFSCSVMHEALHNHYTQKSLSLSPG", "notes": "also called ICOSCL ECD with N52H/N57Y/Q100R/F172S"}, "B8": {"name": "Wildtype ICOSL ECD (control of Tables 30C and 30D) (Fc fusion, not shown: a dimerising Fc or GST)", "chain": "DTQEKEVRAMVGSDVELSCACPEGSRFDLNDVYVYWQTSESKTVVTYHIPQNSSLENVDSRYRNRALMSPAGMLRGDFSLRLFNVTPQDEQKFHCLVLSQSLGFQEVLSVEVTLHVAANFSVPVVSAPHSPSQDELTFTCTSINGYPRPNVYWINKTDNSLLDQALQNDTVFLNMRGLYDVVSVLRIARTPSVNIGCCIENVLLQQNLTVGSQTGNDIGERDKITENPVSTGEKNAAT"}}, "key": {"[1]": {"target": "human PD-L1, full-length, expressed on transfected cells (human) (UniProt Q9NZQ7)", "sequence (Q9NZQ7 19-290)": "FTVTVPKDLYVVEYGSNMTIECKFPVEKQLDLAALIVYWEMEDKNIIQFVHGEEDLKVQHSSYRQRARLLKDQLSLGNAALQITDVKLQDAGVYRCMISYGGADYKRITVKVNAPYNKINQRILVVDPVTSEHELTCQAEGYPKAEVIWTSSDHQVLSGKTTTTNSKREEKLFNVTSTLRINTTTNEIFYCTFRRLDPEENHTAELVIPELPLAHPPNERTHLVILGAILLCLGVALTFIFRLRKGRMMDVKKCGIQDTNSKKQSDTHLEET", "experiment": "flow cytometry, transfected cells"}, "human PD-L1 (human)": {"target": "human PD-L1 (human) (UniProt Q9NZQ7)", "sequence (Q9NZQ7 19-290)": "as above", "experiment": "flow cytometry, PD-L1-transfected cells"}, "human CD28 [2]": {"target": "T1, human CD28 (human, UniProt P10747 19-220)", "T1 construct": "whole, on cells", "experiment": "flow cytometry, CD28-transfected cells"}, "[3]": {"target": "human CD28, full-length, expressed on transfected cells (human) (UniProt P10747)", "experiment": "flow cytometry, transfected cells"}, "[4]": {"target": "human CD28, full length, expressed on cells (human) (UniProt P10747)", "experiment": "flow cytometry, ECD-Fc on CD28-transfected HEK293 cells"}, "[5]": {"target": "T2, human ICOS, full length, expressed on cells (human, UniProt Q9Y6W8 21-199)", "T2 sequence": "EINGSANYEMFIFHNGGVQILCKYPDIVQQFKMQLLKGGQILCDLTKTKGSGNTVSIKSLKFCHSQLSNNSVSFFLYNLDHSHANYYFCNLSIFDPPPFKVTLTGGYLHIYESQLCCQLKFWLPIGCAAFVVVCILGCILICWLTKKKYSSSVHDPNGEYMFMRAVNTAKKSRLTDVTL", "experiment": "flow cytometry on CHO cells transduced for surface expression of full-length human ICOS; Fc protein 32 pM to 100 nM, PE anti-human IgG, MFI"}, "[6]": {"target": "human CD28, full length, expressed on cells (human, UniProt P10747 19-220)", "experiment": "flow cytometry of human T cells from blood of treated GVHD mice"}, "human CD28 [7]": {"target": "T1, human CD28", "experiment": "flow cytometry, transfected cells; protein from CHO"}, "human ICOS [8]": {"target": "T3, human ICOS (human, UniProt Q9Y6W8 21-199)", "T3 construct": "whole, on cells", "T3 sequence (looked up)": "T2 sequence", "experiment": "flow cytometry, transfected cells; protein from CHO"}, "human CTLA-4 [9]": {"target": "T4, human CTLA-4 (human, UniProt P16410 36-223)", "T4 construct": "whole, on cells", "T4 sequence (P16410 36-223)": "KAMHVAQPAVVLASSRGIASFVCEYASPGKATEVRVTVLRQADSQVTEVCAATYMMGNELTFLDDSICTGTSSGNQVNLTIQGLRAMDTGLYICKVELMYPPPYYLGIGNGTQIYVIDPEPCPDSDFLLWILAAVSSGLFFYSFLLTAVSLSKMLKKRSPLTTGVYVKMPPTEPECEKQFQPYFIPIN", "experiment": "flow cytometry, transfected cells; protein from CHO"}, "human CD28 [10]": {"target": "T1, human CD28", "experiment": "flow cytometry, transfected cells; protein from 293"}, "human ICOS [11]": {"target": "T3, human ICOS", "experiment": "flow cytometry, transfected cells; protein from 293"}, "human CTLA-4 [12]": {"target": "T4, human CTLA-4", "experiment": "flow cytometry, transfected cells; protein from 293"}, "human CD28 [13]": {"target": "T1, human CD28", "experiment": "flow cytometry, transfected cells; protein from CHO", "remark": "listed apart in the source"}, "human ICOS [14]": {"target": "T3, human ICOS", "experiment": "flow cytometry, transfected cells; protein from CHO", "remark": "listed apart in the source"}, "human CTLA-4 [15]": {"target": "T4, human CTLA-4", "experiment": "flow cytometry, transfected cells; protein from CHO", "remark": "listed apart in the source"}, "human CTLA-4 [16]": {"target": "T4, human CTLA-4", "experiment": "flow cytometry, transfected cells"}}, "note": "Positions count from the first letter of the chain named. Numbers in names are those of the source. Where “and” joins values, the source holds several entries; their conditions need not be identical. Equal entries are not always repeated.", "data": [{"molecule": "stacked Fc fusion: Domain 1 CD80 WT / Domain 2 ICOSL WT / Fc", "values": [{"measurement": "MFI", "setting": "[1]", "result": 2660, "unit": "MFI"}]}, {"molecule": "stack CD80 WT IgV / ICOSL WT IgV / Fc (Fc fusion)", "values": [{"measurement": "MFI", "setting": "human PD-L1 (human)", "result": 1230, "unit": "MFI"}]}, {"molecule": "ICOSL F27S/N52H/N57Y/V110N ECD-Fc (Fc fusion)", "values": [{"measurement": "MFI", "setting": "human CD28 [2]", "result": "8610 MFI and 4160 MFI"}, {"measurement": "parental ratio of MFI", "setting": "human CD28 [2]", "result": "1.92 fold vs WT and 0.93 fold vs WT"}]}, {"molecule": "stack ICOSL WT IgV / CD80 WT IgV / Fc (Fc fusion)", "values": [{"measurement": "MFI", "setting": "human PD-L1 (human)", "result": 3000, "unit": "MFI"}]}, {"molecule": "stacked Fc fusion: Domain 1 ICOSL WT / Domain 2 NKp30 WT / Fc", "values": [{"measurement": "MFI", "setting": "[3]", "result": 7920, "unit": "MFI"}]}, {"molecule": "ICOSL T43A/N52H/N57Y/L74Q/D89G/V110D/F172S ECD-Fc (Fc fusion)", "values": [{"measurement": "parental ratio of MFI", "setting": "human CD28 [2]", "result": 0.49, "unit": "fold vs WT"}]}, {"molecule": "ICOSL Y47H/N52S/V107A/F120S ECD-Fc (Fc fusion)", "values": [{"measurement": "parental ratio of MFI", "setting": "human CD28 [2]", "result": 0.31, "unit": "fold vs WT"}]}, {"molecule": "ICOSL N52H/N57Y/Q100R/V110D/V116A/L161M/F172S/S192G/C198R ECD-Fc (Fc fusion)", "values": [{"measurement": "parental ratio of MFI", "setting": "human CD28 [2]", "result": 0.93, "unit": "fold vs WT"}]}, {"molecule": "stacked Fc fusion: Domain 1 NKp30 WT / Domain 2 ICOSL WT / Fc", "values": [{"measurement": "MFI", "setting": "[3]", "result": 6340, "unit": "MFI"}]}, {"molecule": "B1", "values": [{"measurement": "CD28 MFI parental ratio (ratio to WT ICOSL)", "setting": "[4]", "result": 0.89}]}, {"molecule": "B2", "values": [{"measurement": "CD28 MFI", "setting": "[4]", "result": 16, "unit": "MFI"}, {"measurement": "CD28 MFI parental ratio (ratio to WT ICOSL)", "setting": "[4]", "result": 0.87}]}, {"molecule": "B3", "values": [{"measurement": "EC50 (read off the curve)", "setting": "[5]", "result": "~0.8", "unit": "nM"}]}, {"molecule": "B4", "values": [{"measurement": "EC50 (read off the curve)", "setting": "[5]", "result": "~0.5", "unit": "nM"}]}, {"molecule": "B5", "values": [{"measurement": "EC50 (read off the curve)", "setting": "[5]", "result": "~0.4", "unit": "nM"}]}, {"molecule": "B6", "values": [{"measurement": "binding result", "setting": "[6]", "result": "binds"}]}, {"molecule": "B7", "values": [{"measurement": "MFI", "setting": "human CD28 [7]", "result": 110000, "unit": "MFI"}, {"measurement": "MFI ratio to WT", "setting": "human CD28 [7]", "result": 63.9, "unit": "fold"}, {"measurement": "MFI", "setting": "human ICOS [8]", "result": 136000, "unit": "MFI"}, {"measurement": "MFI ratio to WT", "setting": "human ICOS [8]", "result": 1.4, "unit": "fold"}, {"measurement": "MFI", "setting": "human CTLA-4 [9]", "result": 323000, "unit": "MFI"}, {"measurement": "MFI ratio to WT", "setting": "human CTLA-4 [9]", "result": 42.6, "unit": "fold"}, {"measurement": "MFI", "setting": "human CD28 [10]", "result": 12900, "unit": "MFI"}, {"measurement": "MFI ratio to WT", "setting": "human CD28 [10]", "result": 3.6, "unit": "fold"}, {"measurement": "MFI", "setting": "human ICOS [11]", "result": 16000, "unit": "MFI"}, {"measurement": "MFI ratio to WT", "setting": "human ICOS [11]", "result": 1.4, "unit": "fold"}, {"measurement": "MFI", "setting": "human CTLA-4 [12]", "result": 8180, "unit": "MFI"}, {"measurement": "MFI ratio to WT", "setting": "human CTLA-4 [12]", "result": 0.7, "unit": "fold"}, {"measurement": "MFI", "setting": "human CD28 [13]", "result": 14400, "unit": "MFI"}, {"measurement": "MFI ratio to WT", "setting": "human CD28 [13]", "result": 4.1, "unit": "fold"}, {"measurement": "MFI", "setting": "human ICOS [14]", "result": 12600, "unit": "MFI"}, {"measurement": "MFI ratio to WT", "setting": "human ICOS [14]", "result": 1.1, "unit": "fold"}, {"measurement": "MFI", "setting": "human CTLA-4 [15]", "result": 8710, "unit": "MFI"}, {"measurement": "MFI ratio to WT", "setting": "human CTLA-4 [15]", "result": 0.7, "unit": "fold"}]}, {"molecule": "B8", "values": [{"measurement": "MFI", "setting": "human CTLA-4 [16]", "result": 7580, "unit": "MFI"}, {"measurement": "MFI", "setting": "human CTLA-4 [12]", "result": 12100, "unit": "MFI"}]}]}
